The series deals with Escherichia coli TOP10. In words: shrunken log2 fold change of peptide-encoding DNA abundance (4.5 h post-induction vs induction); higher = less antimicrobial activity (less host growth inhibition). Conditions: time post-induction: 4.5 h; library: site-saturation at positions 5, 18, 19, 20.

The text below walks through data of the supplement of paper PMC9112550, “Optimization of the antimicrobial peptide Bac7 by deep mutational scanning” (BMC Biology, 2022).
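Note: peptides expressed intracellularly from a pBAD plasmid library in pooled LB shake-flask culture, induced with 0.3% L-arabinose, DNA abundance read by NGS, three biological replicates, DESeq2 with apeglm shrinkage.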

As for RRIRRRPPRLPRPRPRPRCWPRP, the “shrunken log2 fold change” value was found to be 0.486.
For RRIRPRPPRLPRPRPRPRIAPRP the value was 0.451; for RRIRYRPPRLPRPRPRPWDTPRP, -0.639; for RRIRQRPPRLPRPRPRPHYMPRP, -0.474.
For RRIRDRPPRLPRPRPRPQVCPRP the value was 0.19; for RRIRTRPPRLPRPRPRPPGQPRP, 0.622.
Take RRIRDRPPRLPRPRPRPYKLPRP: the “shrunken log2 fold change” value is -1.01.
Take RRIRPRPPRLPRPRPRPAKEPRP: the “shrunken log2 fold change” value came to 0.0354.
Then RRIRSRPPRLPRPRPRPKKWPRP, with 0.0341.
RRIRARPPRLPRPRPRPLPAPRP: the “shrunken log2 fold change” value turned out to be 1.02.
In the case of RRIRPRPPRLPRPRPRPLEFPRP, the “shrunken log2 fold change” value was -0.241.
For RRIRNRPPRLPRPRPRPIGPPRP the value was -0.181; for RRIRHRPPRLPRPRPRPSWPPRP, -0.00928; for RRIRLRPPRLPRPRPRPIIDPRP, -0.256.
Take RRIRARPPRLPRPRPRPINPPRP: the “shrunken log2 fold change” value was 0.0479.
For RRIRTRPPRLPRPRPRPQAGPRP the value was 0.107; for RRIRRRPPRLPRPRPRPIPKPRP, 0.0997; for RRIRRRPPRLPRPRPRPIKLPRP, -0.128.
For RRIRGRPPRLPRPRPRPHWHPRP the value was 0.0418; for RRIRNRPPRLPRPRPRPFKQPRP, -0.0135.
RRIRGRPPRLPRPRPRPVHMPRP: the “shrunken log2 fold change” value was -0.0938.
With RRIRIRPPRLPRPRPRPQIDPRP, the “shrunken log2 fold change” value is -2.56.
For RRIRPRPPRLPRPRPRPFNEPRP the value was -0.347; for RRIRTRPPRLPRPRPRPIHLPRP, 0.0312; for RRIRPRPPRLPRPRPRPGTTPRP, 0.195.
Then RRIRARPPRLPRPRPRPTSVPRP, with 0.52; and RRIRSRPPRLPRPRPRPTSNPRP, with 0.133.
As to RRIRHRPPRLPRPRPRPGVKPRP, the “shrunken log2 fold change” value was -0.0148.
For RRIRTRPPRLPRPRPRPFQAPRP, the “shrunken log2 fold change” value is -0.0372.
Then RRIRHRPPRLPRPRPRPGRSPRP, with 3.99; and RRIRDRPPRLPRPRPRPGKGPRP, with 0.0189.
As to RRIRQRPPRLPRPRPRPRGKPRP, the “shrunken log2 fold change” value turned out to be 0.00142.
For RRIRHRPPRLPRPRPRPNMNPRP the value was -0.424; for RRIRKRPPRLPRPRPRPFEHPRP, -0.0326; for RRIRGRPPRLPRPRPRPKAIPRP, 0.363.
For RRIRARPPRLPRPRPRPNKHPRP the value was -0.171; for RRIRRRPPRLPRPRPRPNERPRP, -0.0664.
Then RRIRCRPPRLPRPRPRPGYAPRP, with 0.085; and RRIRDRPPRLPRPRPRPCGVPRP, with 0.0765.
In the case of RRIRMRPPRLPRPRPRPVPDPRP, the “shrunken log2 fold change” value was found to be 0.239.
Then RRIRYRPPRLPRPRPRPYRNPRP, with -0.0228; and RRIRWRPPRLPRPRPRPYFKPRP, with -0.839; and RRIRCRPPRLPRPRPRPQYWPRP, with -0.312.
In the case of RRIRERPPRLPRPRPRPLTRPRP, the “shrunken log2 fold change” value was 0.167.
Turning to RRIRYRPPRLPRPRPRPYCDPRP, the “shrunken log2 fold change” value is -0.379.
